Results from US20250376529A1 (Amgen, published 2025).

Target: T1, Rhesus GIPR (rhesus, UniProt F7E1R9 22-466)
T1 sequence: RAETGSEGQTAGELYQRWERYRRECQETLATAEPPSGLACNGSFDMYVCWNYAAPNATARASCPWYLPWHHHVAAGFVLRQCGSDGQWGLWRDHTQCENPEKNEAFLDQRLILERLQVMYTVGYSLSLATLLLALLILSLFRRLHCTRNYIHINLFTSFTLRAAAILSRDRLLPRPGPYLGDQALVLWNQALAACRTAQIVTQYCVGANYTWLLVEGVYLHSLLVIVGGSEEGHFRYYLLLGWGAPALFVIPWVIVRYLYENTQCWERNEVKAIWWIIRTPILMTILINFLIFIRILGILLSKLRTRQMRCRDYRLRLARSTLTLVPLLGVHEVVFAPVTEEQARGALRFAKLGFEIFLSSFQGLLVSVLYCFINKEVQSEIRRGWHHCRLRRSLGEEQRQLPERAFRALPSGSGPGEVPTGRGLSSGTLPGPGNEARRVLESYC
Test: cell-based or functional assay

Binder	Rhesus GIPR CAMP Assay (Conc. mAb @ 60% Inhibition in nM)
5G12.006.001 (antibody, human IgG1, kappa, N297G) heavy: not shown light: DIQLTQSPSSLSASVGDRVTITCRASQTISRFLNWYQQKPGKAPELLIYVASSLQSGVPSRFSGSGSGTDFTLTISSLQPEDFATYYCQQSYSTLISFGQGTKLEIKRTVAAPSVFIFPPSDEQLKSGTASVVCLLNNFYPREAKVQWKVDNALQSGNSQESVTEQDSKDSTYSLSSTLTLSKADYEKHKVYACEVTHQGLSSPVTKSFNRGEC	0.9 nM
5G12.006.006 (antibody, human IgG1, kappa, N297G, V domains shown) VH: not shown VL: DIQLTQSPSSLSASVGDRVTITCRASQTISRFLNWYQQKPGKAPELLIYVASSLQSGVPSRFSGSGSGTDFTLTISSLQPEDFATYYCQQSYSTLISFGQGTKLEIKR	0.9 nM
5G12.006.005 (antibody, human IgG1, kappa, N297G, V domains shown) VH: QVQLVESGGGVVQPGRSLRLSCAASGFTFSSYGIHWVRQAPGKGLEWVAVIWYDASNKFHADSVKGRFTISRDNSKNTLYLQMNSLRAEDSAMYFCARGKVAGMPEAFEIWGQGTKVTVSS VL: DIQLTQSPSSLSASVGDRVTITCRASQTISRFLNWYQQKPGKAPELLIYVASSLQSGVPSRFSGSGSGTDFTLTISSLQPEDFATYYCQQSYSTLISFGQGTKLEIKR	5.3 nM
5G12.006 (antibody, human IgG1, kappa, N297G, V domains shown) VH: QVQLVESGGGVVQPGRSLRLSCTASGFTFSSYGIHWVRQAPGKGLEWVAVIWYDGSNKFHADSVKGRFTISRDNSKNTLYLQMNSLRAEDSAMYFCARGKVAGMPEAFEIWGQGTKVTVSS VL: DIQLTQSPSSLSASVGDRVTITCRASQTISRFLNWYQQKPGKAPELLIYVASSLQSGVPSRFSGSGSGTDFTLTISSLQPEDFATYYCQQSYSTLISFGQGTKLEITR	0.8 nM
5G12.006.002 (antibody, human IgG1, kappa, N297G, V domains shown) VH: not shown VL: DIQLTQSPSSLSASVGDRVTITCRASQTISRFLNWYQQKPGKAPELLIYVASSLQSGVPSRFSGSGSGTDFTLTISSLQPEDFATYYCQQSYSTLISFGQGTKLEIKR	1 nM
18F2.010 (antibody, human IgG1, kappa, N297G, V domains shown) VH: QVQLVESGGGVVQPGRSLRLSCAASGFTFSNFGMHWVRQAPGKGLEWVAVIWYDASNENYADSVKGRFTISRDNSKNTLYLQMNSLRAADTAVYYCARDGTIFGVVLGDYWGQGTLVTVSS VL: DIQMTQSPSSLSASIGDRVTITCRASQDLRNYLGWYQQKPGKAPKLLIYGASSLQSGVPSRFSGSGSGTEFTLTISSLQPEDFATYYCLQHNNYPFTFGPGTKVDIKR	1.75 nM

Other lines, results leading:

Rhesus GIPR CAMP Assay (Conc. mAb @ 60% Inhibition in nM)	Binder
10.9 nM	5G12.005.001 (antibody, human IgG1, kappa, N297G, V domains shown) VH: not shown VL: DIQLTQSPSSLSASVGDRVTITCRASQTISRFLNWYQQKPGKAPKLLIYVASSLQSGVPSRFSGSGSGTDFTLTISSLQPEDFATYYCQQSYSTLLSFGQGTKLEIKR
1.28 nM	18F2.009 (antibody, human IgG1, kappa, N297G, V domains shown) VH: not shown VL: DIQMTQSPSSLSASIGDRVTITCRASQDLRNYLGWYQQKPGKAPKLLIYGASSLQSGVPSRFSGSGSGTEFTLTISSLQPEDFATYYCLQHNNYPFTFGPGTKVDIKR
0.61 nM	6A5.004.007 (antibody, human IgG1, kappa, N297G, V domains shown) VH: QVQLVESGGGVVQPGRSLRLSCAASGFSFSSYGMHWVRQPPGKGLEWVAAIWYDANNKYYADAVKGRFTISRDSSKNTLYLQMNSLRAEDTAVYYCARDRTIFGVVLEYWGQGTLVTVSS VL: not shown
0.82 nM	6A5.004.008 (antibody, human IgG1, kappa, N297G, V domains shown) VH: QVQLVESGGGVVQPGRSLRLSCAASGFSFSSYGMHWVRQPPGKGLEWVAAIWYDGNNKYYADAVKGRFTISRDSSKNTLYLQMNSLRAEDTAVYYCARDRTIFGVVLEYWGQGTLVTVSS VL: DIQMTQSPSSLSASVGDRVTITCQASQDITNYLNWYQQKPGKAPKLLIYDASNLEPGVPSRFSGSGSGTDFTLTISSLQPEDFATYYCQQYDDLFTFGPGTKVDIKR
